Test in all cases: EMSA
Data set [1] addresses T1, GST-p52 (WT);GST-ETS1 (Homo sapiens;Homo sapiens, UniProt Q00653;P14921 1-454;1-441, |).
T1 sequence 1: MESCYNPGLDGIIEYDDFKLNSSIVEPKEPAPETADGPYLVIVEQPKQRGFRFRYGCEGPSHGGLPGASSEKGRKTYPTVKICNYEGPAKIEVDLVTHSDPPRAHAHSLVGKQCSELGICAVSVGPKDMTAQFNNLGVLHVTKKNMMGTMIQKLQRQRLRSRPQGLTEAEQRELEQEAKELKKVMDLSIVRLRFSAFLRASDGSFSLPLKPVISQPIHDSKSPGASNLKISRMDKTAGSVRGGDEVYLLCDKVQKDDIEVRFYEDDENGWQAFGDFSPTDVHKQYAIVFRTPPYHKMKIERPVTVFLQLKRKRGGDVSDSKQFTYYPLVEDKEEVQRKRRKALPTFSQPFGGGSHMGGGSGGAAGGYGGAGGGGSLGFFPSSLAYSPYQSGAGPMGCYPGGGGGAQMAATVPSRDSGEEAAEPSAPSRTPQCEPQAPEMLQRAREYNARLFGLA
T1 sequence 2: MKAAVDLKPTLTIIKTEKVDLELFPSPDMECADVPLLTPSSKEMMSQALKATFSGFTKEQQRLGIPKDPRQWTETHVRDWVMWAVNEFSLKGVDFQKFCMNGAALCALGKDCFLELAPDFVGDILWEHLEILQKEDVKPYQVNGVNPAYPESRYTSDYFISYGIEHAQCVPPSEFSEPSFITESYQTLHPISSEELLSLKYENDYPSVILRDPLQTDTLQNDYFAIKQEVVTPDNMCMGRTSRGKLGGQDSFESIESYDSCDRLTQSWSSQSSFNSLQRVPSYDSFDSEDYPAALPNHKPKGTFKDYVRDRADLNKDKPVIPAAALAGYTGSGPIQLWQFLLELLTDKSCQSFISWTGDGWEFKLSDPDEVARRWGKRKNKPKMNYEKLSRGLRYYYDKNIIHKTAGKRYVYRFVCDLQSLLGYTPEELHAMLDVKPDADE

For data set [2], the target named is T2, GST-ETS1 (Homo sapiens, UniProt P14921 1-441).
T2 sequence: T1 sequence 2

In data set [3] the target is T3, GST-p52 (WT) (Homo sapiens, UniProt Q00653 1-454).
T3 sequence: T1 sequence 1

The target of data set [4] is T2, GST-ETS1. This is another data set of the same source.
The target of data set [5] is T3, GST-p52 (WT). The source holds these as a separate data set.

Where two headings read alike, the source gives them in different places.

The text below walks through data of paper PMC4772727.

B1: C250T TERT promoter probe (dsDNA)
DNA 1: GTCCCGACCCCTTCCGGGTCCCCGGC
DNA 2: GCCGGGGACCCGGAAGGGGTCGGGAC
As for B1, the binding result in data set [1], in data set [2] and in data set [3] was “binds” each time.

B2: WT TERT promoter probe (dsDNA)
DNA 1: GTCCCGACCCCTCCCGGGTCCCCGGC
DNA 2: GCCGGGGACCCGGGAGGGGTCGGGAC
Regarding B2, the binding result in data set [4] is reported as “no binding”; in data set [5], “binds”.
